Assay results: patent US20110207628A1

What was measured:
[1] = biological target: FLAG-tubby-F (full-length mouse tubby with N-terminal FLAG tag) (mouse) (UniProt P50586); assay: clonal phage on immobilized FLAG-tubby-F, plaque assay
[2] = biological target: tubby-N (N-terminus of mouse tubby, 1M-242P), GST-free (mouse) (UniProt P50586); assay: clonal phage on immobilized tubby-N, plaque assay
Sequence of tubby-N (N-terminus of mouse tubby, 1M-242P), GST-free (mouse) (P50586 1-242): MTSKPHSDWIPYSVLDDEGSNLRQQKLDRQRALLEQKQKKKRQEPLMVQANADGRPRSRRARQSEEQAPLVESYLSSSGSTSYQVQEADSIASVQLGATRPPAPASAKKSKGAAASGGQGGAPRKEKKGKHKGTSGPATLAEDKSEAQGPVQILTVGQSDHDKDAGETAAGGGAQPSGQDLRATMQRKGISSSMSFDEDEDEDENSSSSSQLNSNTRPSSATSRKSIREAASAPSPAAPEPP

Sequence of FLAG-tubby-F (full-length mouse tubby with N-terminal FLAG tag) (mouse) (P50586 other isoform, or with tags, fused parts or gaps): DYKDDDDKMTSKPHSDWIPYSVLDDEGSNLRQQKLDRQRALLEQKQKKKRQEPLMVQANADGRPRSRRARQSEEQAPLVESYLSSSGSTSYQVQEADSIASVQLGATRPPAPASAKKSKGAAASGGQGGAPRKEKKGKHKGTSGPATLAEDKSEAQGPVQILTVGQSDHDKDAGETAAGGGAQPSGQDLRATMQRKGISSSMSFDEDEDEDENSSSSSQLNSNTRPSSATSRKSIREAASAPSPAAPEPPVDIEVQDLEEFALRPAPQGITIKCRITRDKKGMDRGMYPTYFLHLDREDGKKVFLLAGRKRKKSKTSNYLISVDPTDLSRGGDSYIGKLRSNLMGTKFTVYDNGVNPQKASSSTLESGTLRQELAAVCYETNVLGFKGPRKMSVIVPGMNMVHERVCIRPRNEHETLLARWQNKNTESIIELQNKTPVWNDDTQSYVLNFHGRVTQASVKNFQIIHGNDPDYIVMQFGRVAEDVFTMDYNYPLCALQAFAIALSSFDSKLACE

B1: Regulated endocrine-specific protein 18 (Resp18) 68V-134K, phage clone (protein, mouse, UniProt P47939 68-134, looked up)
chain: VPEGMFWADDIAYELMTKKVEHLSRLHPQYPCRKDMKAVSPTANAGVRSKQEEKLQLLSPQKSPTVK
**Q.** What does the source list for B1?
**A.** Binding to tubby-F (binding specificity to FLAG-tubby-F vs. to GFP-FLAG) [1]: 4.8 X (fold); Binding to tubby-N (binding specificity of clonal phage vs. control phage) [2]: 10.3 X (fold)
